Values of other authors in patent US10709784B2, “Metal chelating compositions and methods for controlling the growth or activities of a living cell or organism” (CHELATION PARTNERS INCORPORATED, priority 2011, dated 2020).

Details: comparison value, molecular weight 80 kDa/mole

B1: lactoferrin: iron binding defence protein, molecular weight 80 kDa/mole (protein, UniProt P02788 20-710, looked up)
Lactotransferrin: GRRRSVQWCAVSQPEATKCFQWQRNMRKVRGPPVSCIKRDSPIQCIQAIAENRADAVTLDGGFIYEAGLAPYKLRPVAAEVYGTERQPRTHYYAVAVVKKGGSFQLNELQGLKSCHTGLRRTAGWNVPIGTLRPFLNWTGPPEPIEAAVARFFSASCVPGADKGQFPNLCRLCAGTGENKCAFSSQEPYFSYSGAFKCLRDGAGDVAFIRESTVFEDLSDEAERDEYELLCPDNTRKPVDKFKDCHLARVPSHAVVARSVNGKEDAIWNLLRQAQEKFGKDKSPKFQLFGSPSGQKDLLFKDSAIGFSRVPPRIDSGLYLGSGYFTAIQNLRKSEEEVAARRARVVWCAVGEQELRKCNQWSGLSEGSVTCSSASTTEDCIALVLKGEADAMSLDGGYVYTAGKCGLVPVLAENYKSQQSSDPDPNCVDRPVEGYLAVAVVRRSDTSLTWNSVKGKKSCHTAVDRTAGWNIPMGLLFNQTGSCKFDEYFSQSCAPGSDPRSNLCALCIGDEQGENKCVPNSNERYYGYTGAFRCLAENAGDVAFVKDVTVLQNTDGNNNEAWAKDLKLADFALLCLDGKRKPVTEARSCHLAMAPNHAVVSRMDKVERLKQVLLHQQAKFGRNGSDCPDKFCLFQSETKNLLFNDNTECLARLHGKTTYEKYLGPQYVAGITNLKKCSTSPLLEACEFLRK
Which “Fe bound per mole” value does the source give for B1 here?
Its value is 2 atoms of Fe/mole.
